Data as given in paper PMC6958441, “Role of the Metal Center in the Modulation of the Aggregation Process of Amyloid Model Systems by Square Planar Complexes Bearing 2-(2′-pyridyl)benzimidazole Ligands” (Pharmaceuticals, 2019).

Molecular target: the molecule itself
Test: ESI-MS; peptide alone (control) at 100 µM in 15 mM ammonium acetate pH 6.8, 25 °C, direct injection, Q-ToF; the dimer is also seen in the samples with the metal complexes 1-3

B1: NPM1_(264–277), fragment corresponding to the 2nd helix (residues 264–277) of the C-terminal domain of nucleophosmin 1 (peptide)
peptide: Ac-VEAKFINYVKNCFR-NH2
notes: The dimer seen by ESI-MS is held by a disulfide bridge through the single cysteine of the peptide; A species of 1874 Da (monomer adduct on the Cys) and oxidised forms were also in the sample; source: synthetic peptide, treated with HFIP, purified through RP-HPLC
stoichiometry N: 2
